Test [1] addresses T1, human serum albumin (Homo sapiens, UniProt P02768). The test is described as follows: SPR pH 7.4.
A further test deals with bovine serum albumin (Bos taurus, UniProt P02769). Description: SPR pH 7.4.
A further test concerns the target T2, dog serum albumin (Canis lupus familiaris, UniProt P49822).
T2 chain: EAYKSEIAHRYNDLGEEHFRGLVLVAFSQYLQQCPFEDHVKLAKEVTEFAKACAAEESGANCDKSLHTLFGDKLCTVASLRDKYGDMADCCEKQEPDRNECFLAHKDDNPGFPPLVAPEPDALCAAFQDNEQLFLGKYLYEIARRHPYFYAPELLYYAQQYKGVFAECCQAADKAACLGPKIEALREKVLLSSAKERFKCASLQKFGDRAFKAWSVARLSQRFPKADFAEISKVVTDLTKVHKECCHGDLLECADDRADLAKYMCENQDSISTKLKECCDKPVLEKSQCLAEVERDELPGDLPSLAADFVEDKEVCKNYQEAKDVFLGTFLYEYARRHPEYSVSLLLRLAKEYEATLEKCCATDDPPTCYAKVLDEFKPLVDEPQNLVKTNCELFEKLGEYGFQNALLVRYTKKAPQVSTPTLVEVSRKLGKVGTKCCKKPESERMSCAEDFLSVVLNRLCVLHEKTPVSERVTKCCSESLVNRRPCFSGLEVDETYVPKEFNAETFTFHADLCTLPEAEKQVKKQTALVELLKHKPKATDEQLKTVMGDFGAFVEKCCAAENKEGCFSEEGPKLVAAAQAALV
The test is described as follows: SPR pH 7.4.

Another test deals with T3, rat serum albumin (Rattus norvegicus, UniProt P02770).
T3 chain: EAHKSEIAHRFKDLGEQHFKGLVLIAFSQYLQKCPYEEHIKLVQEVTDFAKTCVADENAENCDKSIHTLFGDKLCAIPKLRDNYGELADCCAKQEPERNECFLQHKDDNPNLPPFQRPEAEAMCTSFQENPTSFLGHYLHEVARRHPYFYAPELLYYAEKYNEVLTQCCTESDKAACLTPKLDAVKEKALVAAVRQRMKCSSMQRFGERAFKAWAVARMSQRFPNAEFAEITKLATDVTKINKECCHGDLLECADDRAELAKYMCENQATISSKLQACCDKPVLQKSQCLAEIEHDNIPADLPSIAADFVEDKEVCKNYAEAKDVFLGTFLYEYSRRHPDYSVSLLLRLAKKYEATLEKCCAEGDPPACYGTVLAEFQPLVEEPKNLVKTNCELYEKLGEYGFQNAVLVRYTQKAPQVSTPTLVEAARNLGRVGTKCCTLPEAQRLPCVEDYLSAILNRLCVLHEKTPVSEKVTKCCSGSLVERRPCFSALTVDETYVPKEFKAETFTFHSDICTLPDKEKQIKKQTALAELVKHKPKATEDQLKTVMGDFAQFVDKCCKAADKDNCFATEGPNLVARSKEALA
The test is described as follows: SPR pH 7.4.

A further test concerns the target T4, sheep serum albumin (Ovis aries, UniProt P14639).
T4 chain: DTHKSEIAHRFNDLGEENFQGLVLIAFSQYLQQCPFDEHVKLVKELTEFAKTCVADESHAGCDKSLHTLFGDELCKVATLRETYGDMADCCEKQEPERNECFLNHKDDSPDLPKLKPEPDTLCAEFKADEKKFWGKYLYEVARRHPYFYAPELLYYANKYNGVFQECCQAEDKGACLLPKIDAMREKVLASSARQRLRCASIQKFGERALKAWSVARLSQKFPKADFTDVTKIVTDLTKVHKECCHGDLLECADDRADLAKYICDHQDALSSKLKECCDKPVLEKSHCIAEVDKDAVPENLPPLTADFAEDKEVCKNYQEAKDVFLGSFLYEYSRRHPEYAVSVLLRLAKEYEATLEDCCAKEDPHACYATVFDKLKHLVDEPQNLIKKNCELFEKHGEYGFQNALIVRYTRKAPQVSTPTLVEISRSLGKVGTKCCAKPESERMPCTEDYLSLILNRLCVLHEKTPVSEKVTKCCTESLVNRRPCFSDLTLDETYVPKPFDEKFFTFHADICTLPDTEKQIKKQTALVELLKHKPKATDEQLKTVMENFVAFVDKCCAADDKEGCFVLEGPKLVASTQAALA
The test is described as follows: SPR pH 7.4.

For another test, the target named is mouse serum albumin (Mus musculus, UniProt P07724). Description: SPR pH 7.4.
A further test deals with T5, rabbit serum albumin (Oryctolagus cuniculus, UniProt P49065).
T5 chain: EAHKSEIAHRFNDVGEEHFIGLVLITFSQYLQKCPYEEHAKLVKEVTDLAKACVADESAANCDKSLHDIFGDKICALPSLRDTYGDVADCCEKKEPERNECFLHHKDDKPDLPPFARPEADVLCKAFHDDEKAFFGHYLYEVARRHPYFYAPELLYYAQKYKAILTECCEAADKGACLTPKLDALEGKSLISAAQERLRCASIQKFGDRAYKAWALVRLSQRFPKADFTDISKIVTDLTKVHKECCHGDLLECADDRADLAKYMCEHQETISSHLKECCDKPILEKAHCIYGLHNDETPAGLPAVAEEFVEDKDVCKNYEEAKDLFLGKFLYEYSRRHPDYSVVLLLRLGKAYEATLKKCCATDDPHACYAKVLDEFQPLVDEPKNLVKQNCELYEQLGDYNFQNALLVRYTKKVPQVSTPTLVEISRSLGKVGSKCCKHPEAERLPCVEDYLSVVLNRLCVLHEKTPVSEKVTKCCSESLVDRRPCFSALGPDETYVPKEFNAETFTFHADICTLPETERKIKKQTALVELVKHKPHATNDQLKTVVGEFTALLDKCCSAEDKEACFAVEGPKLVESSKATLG
The test is described as follows: SPR pH 7.4.

Test [2] addresses T1, human serum albumin. Description: SPR pH 5.0.
In another test the target is T6, pig serum albumin (Sus scrofa, UniProt P08835).
T6 chain: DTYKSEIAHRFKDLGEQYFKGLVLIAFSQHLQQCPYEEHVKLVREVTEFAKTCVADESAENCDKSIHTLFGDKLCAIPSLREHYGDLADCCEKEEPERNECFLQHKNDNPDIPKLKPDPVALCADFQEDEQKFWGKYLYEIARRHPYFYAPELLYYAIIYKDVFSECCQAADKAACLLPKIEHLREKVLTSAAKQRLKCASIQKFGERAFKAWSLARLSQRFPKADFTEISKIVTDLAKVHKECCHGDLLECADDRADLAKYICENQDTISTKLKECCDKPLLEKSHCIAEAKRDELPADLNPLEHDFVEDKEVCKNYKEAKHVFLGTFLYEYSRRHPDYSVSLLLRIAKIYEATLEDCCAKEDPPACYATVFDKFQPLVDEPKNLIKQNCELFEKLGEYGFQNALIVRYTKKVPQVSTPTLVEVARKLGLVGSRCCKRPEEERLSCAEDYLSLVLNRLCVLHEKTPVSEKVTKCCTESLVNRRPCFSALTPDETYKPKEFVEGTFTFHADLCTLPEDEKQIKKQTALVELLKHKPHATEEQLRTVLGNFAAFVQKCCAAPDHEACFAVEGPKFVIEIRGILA
Description: SPR pH 7.4.

Test [3] addresses T1, human serum albumin. Description: SPR pH 7.4. The source holds these as a separate data set.
In the next test the target is T7, cynomolgus serum albumin (Macaca fascicularis, UniProt A2V9Z4).
T7 chain: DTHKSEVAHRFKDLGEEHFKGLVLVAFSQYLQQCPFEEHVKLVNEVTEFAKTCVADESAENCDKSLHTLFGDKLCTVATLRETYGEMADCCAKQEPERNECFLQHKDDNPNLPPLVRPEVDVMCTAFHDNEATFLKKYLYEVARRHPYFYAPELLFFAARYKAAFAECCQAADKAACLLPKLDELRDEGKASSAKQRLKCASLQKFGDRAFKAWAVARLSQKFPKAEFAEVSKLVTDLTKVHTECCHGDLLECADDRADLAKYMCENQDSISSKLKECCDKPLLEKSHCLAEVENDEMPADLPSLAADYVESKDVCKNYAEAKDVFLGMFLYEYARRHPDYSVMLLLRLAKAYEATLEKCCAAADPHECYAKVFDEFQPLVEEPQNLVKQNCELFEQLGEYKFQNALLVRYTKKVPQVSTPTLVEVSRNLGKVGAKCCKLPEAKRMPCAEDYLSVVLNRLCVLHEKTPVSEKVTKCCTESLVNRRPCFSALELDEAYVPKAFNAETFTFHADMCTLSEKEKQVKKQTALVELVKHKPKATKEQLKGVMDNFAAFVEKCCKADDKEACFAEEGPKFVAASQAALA
Description: SPR pH 7.4.

Test [4] deals with T1, human serum albumin. The test is described as follows: SPR pH 6.0.

The record followed here is EP4442707.

The term koff denotes a measure of how fast the partners let go of each other. The low end stands for slow dissociation, the high end for fast dissociation. The term Kd denotes a measure of binding affinity in units of concentration. Low values mean tighter binding, high ones weaker binding.

B1: SEQ ID NO:19 serum albumin binder (T023500029) (antibody, V domains shown)
VH: EVQLVESGGGVVQPGDSLRLSCAASGGTFSTYVMGWFRQAPGKEREFVSAISQNSIHTYYANSVKGRFTISRDNSKNTVYLQLNSLRPEDTALYYCAASRFTSWYTADYEYDYWGQGTLVTVSS
B1: the results for the koff with human serum albumin [1], in the test with human serum albumin [2] and in the test with human serum albumin [4] were 0.0002 s⁻¹, 0.00051 s⁻¹ and 0.00032 s⁻¹, respectively. The binding result with bovine serum albumin, with sheep serum albumin and in the test with rabbit serum albumin was “no binding” in each case. Further, the Kd came to 1.2 nM with dog serum albumin; 0.067 nM in the test with rat serum albumin; 0.27 nM in the test with mouse serum albumin; 45 nM with pig serum albumin; 0.44 nM with human serum albumin [3]; 0.45 nM in the test with cynomolgus serum albumin.
